Key:
[1] = target: T1, recombinant soluble HCV E1 protein (hepatitis C virus); experiment: ELISA, recombinant E1 captured on GNA lectin; crude periplasmic Fab
T1 construct: It is not the cell-surface E1-myc construct (aa 174-359 of H77c) that was used for phage selection; also called recombinant E1; soluble E1 protein

[2] = target: T2, recombinant E1/E2 heterodimer protein (genotype 1a) (hepatitis C virus genotype 1a, UniProt P26664 192-383; P26664 384-746, limits assumed); experiment: ELISA, E1/E2 heterodimer coated; crude periplasmic Fab
T2 construct: also called E1/E2 in complex; recombinant E1/E2 antigen
T2 sequence (P26664 192-383 limits assumed, chain 1 of 2): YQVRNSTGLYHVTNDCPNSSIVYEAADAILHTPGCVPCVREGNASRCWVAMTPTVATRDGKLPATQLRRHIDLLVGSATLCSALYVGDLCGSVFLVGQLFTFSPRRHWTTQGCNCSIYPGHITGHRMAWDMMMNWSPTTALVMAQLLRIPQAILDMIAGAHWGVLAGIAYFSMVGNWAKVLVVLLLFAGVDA
T2 sequence (P26664 384-746 limits assumed, chain 2 of 2): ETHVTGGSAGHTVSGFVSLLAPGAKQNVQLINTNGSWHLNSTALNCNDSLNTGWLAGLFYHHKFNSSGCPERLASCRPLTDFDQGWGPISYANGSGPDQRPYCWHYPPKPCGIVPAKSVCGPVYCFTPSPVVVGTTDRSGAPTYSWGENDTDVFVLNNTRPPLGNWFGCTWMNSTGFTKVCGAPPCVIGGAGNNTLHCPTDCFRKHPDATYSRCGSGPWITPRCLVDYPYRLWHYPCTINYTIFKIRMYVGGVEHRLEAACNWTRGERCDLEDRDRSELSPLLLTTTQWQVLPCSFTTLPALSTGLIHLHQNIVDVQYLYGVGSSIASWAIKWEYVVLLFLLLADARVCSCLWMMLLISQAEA

Row | Binder | OD405 nm [1] | OD405 nm [2]
1 | Fab clone 2b-9 (Fab, V domains shown, Human Fab (gamma1 Fd + kappa), crude periplasmic preparation, approx. 0.19 ug Fab/ml) VH: LLESGPGLVQPSQTLSLTYAISGDSVSSNSAAWTWIRQSPSRGLEWLGMTYYRSQWYHEYAVSLKSRITINADTSNNQFSLQVNSVTPEDTALYYCARARFVGDTTGYYTFDYWGQGTLVTVSS VL: AELTQSPGTLSLSPGERGTLSCRASQSVSSSYLAWYQQKAGQAPRLLIYGASSRATGIPDRFSGSGSGTDFTLTISRLEPEDFAVYYCQRYGTSPKTFGQGTKVEFK | 0.33 OD405 nm | 
2 | Fab clone 98 (Fab, V domains shown, Human Fab (gamma1 Fd + kappa light chain), tested as a crude periplasmic preparation, approx. 5 ug Fab/ml) VH: EVQLLEQSGAEVKKPGESLRISCRGSGYSFPNYWVSWVRQMPGKGLEWMGKIDPSDSETNYSPSFQGHVTISADKSLSIAYLQWNSLKASDTAMYHCARHKRGAPTYKDILTGYYVDGMDVWGQGTTDTVSS VL: AELTQSPSSLSASVGDRVTITCQASPDISNYLNWYQQKPGKAPNLLIYGASSLQRGVPSRLSGSGSGTDFTLTIDSLQPEDFATYYCQQSYGSPHTFGQGTKVEIK | 0.2 OD405 nm | 
3 | Fab clone 2a-4 (Fab, V domains shown, Human Fab (gamma1 Fd + kappa), crude periplasmic preparation, approx. 1.0 ug Fab/ml) VH: not shown VL: AELTQSPSSLSASIGDRVAISCQASQDIGNYLNWYQQKPGKAPRLLIYDASNLEAGVPSRFSGSGSGTDFTLTISTLQPEDFATFYCQQTDSTPYTFGQGTKLEIR | 1.18 OD405 nm | 
4 | Fab clone 2a-13 (Fab, V domains shown, Human Fab (gamma1 Fd + kappa), crude periplasmic preparation, approx. 0.36 ug Fab/ml) VH: EVQLLESGPGLVKPSETLSLTCTVSGGSISDYYWSWIRQPPGKGLEWIGHTYDNGGTKYNPSLKSRASISVDTSKNQVSLRLTSVTAADTAVYYCATAFLDNSGWYTFDSWGQGSLVTV VL: AELTQSPSSVSASVRDRVTITCRASQGISTWLAWYQQKPGKAPKLLIYAASTLQSGVPSRFSGSGSGTDFTLTIGSLQPEDVATYYCQQANSFPPGALTFGGGTKVEVK | 1.05 OD405 nm | 
5 | Fab clone 1:10 (Fab, V domains shown, Human Fab (gamma1 Fd + kappa), crude periplasmic preparation, approx. 0.01 ug Fab/ml) VH: EVQLLESGAEVKKPGESLRISCRGSGYSFPNYWVSWVRQMPGKGLEWMGKIDPSDSETNYSPSFQGHVTISADKSLSIAYLQWNSLKASDTAMYYCARHKRGAPTYKDILTGYYVDGMDVWGQGTTVTVSS VL: AELTQSPDSLAMSLGERASINCKSSRSLLYSSNNKNYLAWYQQKSGHPPKLLIYWASTRESGVPDRFNGSGSGTDFTLTISSLQAEDVAVYFCQQYYSSPLTFGGGTKVEIK | 0.2 OD405 nm | 0.12 OD405 nm
6 | Fab clone 13 (Fab, V domains shown, Human Fab (gamma1 Fd + kappa light chain), tested as a crude periplasmic preparation, approx. >3 ug Fab/ml) VH: EVQLLESGGGLVQPGRSLRLSCAASGFTFDDYGMHWVRQAPGKGLEWVSGLSWNSDNIGYADSVKGRFTISRDNAKNSLYLQMNSLKIEDTAFYYCAKAPRTLRFLEWHNVYFDLWGRGTLVTVSS VL: not shown | 0.2 OD405 nm | 
7 | Fab clone 2a-32 (Fab, V domains shown, Human Fab (gamma1 Fd + kappa), crude periplasmic preparation, approx. >1 ug Fab/ml) VH: VQLLEQSGGDLVKPGGSLRLSCAASGFTFTDYYMNWIRQAPGKGLEWIAYISIGSDDTKYAASVKGRFSISRDNAKNSLYLQMNSLRVEDTAVYYCGRGGGYCSGGNCYSSDYWGQGALVTVSS VL: AELTQSPSSLSAFTGDRVSITCRASQGIGNSLAWYQQKPGHVPKVLIYDASTLSSGAPSRFSGSGSGTDFTLTISGLQPEDVATYYCQKYKSAPLTFGGGTKVEIR | 0.61 OD405 nm | 0.09 OD405 nm
8 | Fab clone 2b-3 (Fab, V domains shown, Human Fab (gamma1 Fd + kappa), crude periplasmic preparation, approx. 1.0 ug Fab/ml) VH: EVQLLESGAEVKKPGASVTVSCKASGYSFSDYYIHWVRQAPGQGLEWMGIINPSAGTTTYKQKFQHRVTLTRDTSTNTAYMKLYNLTPDDTAIFFCARGSGGSRSEYDYWGQGTLVTVSS VL: AELTQSPSSLSASVGDGVTITCRASQSISTYLNWYQQKPGKAPKLLMYAASTLQSGVPSRFSGSGSGTDFTLTISSLQPEDFAAYYCQQARSFPYTFGQGTRLEIR | 1.18 OD405 nm | 0.19 OD405 nm
9 | Fab clone 2a-37 (Fab, V domains shown, Human Fab (gamma1 Fd + kappa), crude periplasmic preparation, approx. 0.08 ug Fab/ml) VH: EVQLLESGGGLVQPGRSLRLSCAASGFTFSNSDMHWVRQAPGKGLEWVTVSSRDGYDNYYADSVRGRFTISRDNSKNTLYLQMNTLRAEDTAVYYCAKRRGYAFDIWGQGTMVTVSS VL: AELTQSPSSLSASVGDRVTITCRASQSINTYLNWYQQKPGKAPELLIYGASSLQSGVPSRFSGSGSGTDFTLTITSLQAEDFASYFCQQSDSTPRTFGQGTKVEIK | 0.99 OD405 nm | 0.48 OD405 nm
10 | Fab clone 2b-17 (Fab, V domains shown, Human Fab (gamma1 Fd + kappa), crude periplasmic preparation, approx. 0.16 ug Fab/ml) VH: EVQLLESGGGLVQPGRSLRLSCAASGFTFSNSDMHWVRQAPGKGLEWVTVSSRDGYDNYYADSVRGRFTISRDNSKNTLYLQMNTLRAEDTAVYYCAKRRGYAFDIWGQGTMVTVSS VL: AELTQSPSSLSASVGDRVTITCRASQSINTYLNWYQQKPGKAPELLIYGASSLQSGVPSRFSGSGSGTDFTLTITSLQAEDFASYFCQQSDSTPRTFGQGTKVEIK | 0.24 OD405 nm | 
11 | Fab clone 4:6 (Fab, V domains shown, Tested as a human Fab (gamma1 Fd + kappa), crude periplasmic preparation, approx. 0.24 ug Fab/ml) VH: VQLLEQSGAEVKKPGASVKVSCKASGYTFTKYYLHWVRQAPGQGLEWMGFINPSGGSTSSAQKFQGRISMTRDTSTTTVYMEVNSVTSEDTAVYYCARVGRLGVGATGAFDLWGQGTMVTVSS VL: AELTQSPSSLSASVGDRVTITCQASQDINYSLNWYQQKPGKPPKLLIYYASHSDTGVPSRFSGGGSGTRFTLTIYSLQPEDIATYYCQHFDHVPRYTFGPGTKVDLK | 0.97 OD405 nm | 0.2 OD405 nm
12 | Fab clone 6a:5 (Fab, V domains shown, Tested as a human Fab (gamma1 Fd + kappa), crude periplasmic preparation, approx. 0.33 ug Fab/ml) VH: EVQLLESGPGLVKPSQTLSLTCAISGDNVSRKSAAWNWIRQSPSRGLEWLGRTYHMSKWYSVYATSLKSRININVDTSRNQFALQLRSVTPEDTAVYYCAREGPEWAVGGTYGMDVWGQGTTVTVSS VL: AELTQSPDTLSLSPGERATLSCRASQSVNNNYLAWYQQKPGQAPRLLIYGASSRATGIPDRFSGSGSETDFTLTISRLEPEDFAVYYCQQYDSSRTFGQGTKVEIK | 0.15 OD405 nm | 0.09 OD405 nm
13 | Fab clone 1:9 (Fab, V domains shown, Human Fab (gamma1 Fd + kappa), crude periplasmic preparation, approx. 0.05 ug Fab/ml) VH: EVQLLESGPGLVKPSETLSLTCTVSGNSISSGYYWVWFRQSPGKGLEWIASIYHSGSTYYNPSLRSRVSISVDTSKKQFSLKLSSVTAADTAVYYCARDSAKTTRYFVHWGQGTLVTVSS VL: AELTQSPGTLSLSPGERATLSCRASQSVSSSYLAWYQQKAGQAPRLLIYGASRRATGIPVRFSGSGSGAEFTLTISSLQSEDSAVYYCQHYHNWPAMYTFGQGTKLEIK | 0.96 OD405 nm | 0.67 OD405 nm
14 | Fab clone 2a-5 (Fab, V domains shown, Human Fab (gamma1 Fd + kappa), crude periplasmic preparation, approx. 0.44 ug Fab/ml) VH: EVQLLESGPGLVKPSETLSLTCTVSTGSISGYFWSWIRQPPGKGLEWIAYIHNSGNTNYNPSLRSRVTVSIDTSKNQFSLKLTSVTAADTAVYYCARDGGGWDTYLDSWGQGFLVTVSS VL: AELTQSPSSLSASVGDRVTITCRASQTVSSYLNWYQQKPGKAPKVLIYGISTLQSGVPSRFSGSGSETDFTLTISNLQPEDFAIYYCQQSYSSRTFGQGTKVEIK | 0.89 OD405 nm | 0.08 OD405 nm
15 | Fab clone 2a-25 (Fab, V domains shown, Human Fab (gamma1 Fd + kappa), crude periplasmic preparation, approx. 0.11 ug Fab/ml) VH: VQLLEQSGAEVKKPGASVKVSCKASGYMFTCYYMHWVRQAPGQGLEWMGMVNPTGGSSSYAQKFQGRVTMTKGHVTSTVYMELSSLRSEDTAVYYCATGMVRGDEWGQGTLVTVSS VL: AELTQSPSFSSASVGDRVTITCRASHGISSHLAWFQHKPGKAPNLLIYAASTLQSGVPSRFSGSQSGTEFTLTITSLHPEDFATYYCQQLYTWPMGFGQGTRLEIT | 1.46 OD405 nm | 
16 | Fab clone 1:8 (Fab, V domains shown, Human Fab (gamma1 Fd + kappa), crude periplasmic preparation, approx. 0.01 ug Fab/ml) VH: EVQLLESGGGLVEPGRSLRLSCAASGFNFGDYAIHWVRQGPGKGLEWVAGISWNSGSIGYADSVKGRFIISRDNAKKTLFLQMNTLRTEDTALYYCVKETGAQGVAGSGAYYFHNWGQGTLVTVSS VL: AELTQSPSSLSASIGDRVTITCRASQGISNYVAWYQQRPGKVPKLLIFGASALHSGVPSRFSGSGSGTDFTLTITSLQPEDVATYYCQKYRSAPLTFGPGTRVDLK | 0.75 OD405 nm | 0.53 OD405 nm
17 | Fab clone 2a-14 (Fab, V domains shown, Human Fab (gamma1 Fd + kappa), crude periplasmic preparation, approx. 0.72 ug Fab/ml) VH: VQLLEQSGGGVVQPGRSLRLSCAASGFTFSTYAMHWVRQAPGKGLEWVAVISHDGSNKFYADSVKGRFTISRDSSKNTLYLQMNSLRPGDTAVYYCSRWDRRAEYFQDWGQGTLVTVSS VL: AELTQSPAFMSATPGDKVNISCKASQDIDDDMNWYQQKPGEAAIFIIQEATTLVPGIPPRFSGSGYGTDFTLTINNIESEDAAYYFCLQHDNFPLTFGQGTKVEIK | 0.36 OD405 nm | 0.09 OD405 nm
18 | Fab clone 2a-23 (Fab, V domains shown, Human Fab (gamma1 Fd + kappa), crude periplasmic preparation, approx. 0.50 ug Fab/ml) VH: EVQLLESGAGVVQPGKSLTLSCVGSGFTFSIYAMHWVRQAPGKGLEWVAVLSSDGSNDYYADSVKGRFSIFRDTSKNSLNLLMNNVRGEDTAVYYCARDGDGSFFYWGQGTLVTVSS VL: AELTQSPAFMSATPGDKVNISCKASQDIDDDMNWYQQKPGEAAIFIIQEATTLVPGIPPRFSGSGYGTDFTLTINNIESEDAAYYFCLQHDNFPLTFGQGTKVEIK | 1.47 OD405 nm | 
19 | Fab clone 2a-40 (Fab, V domains shown, Human Fab (gamma1 Fd + kappa), crude periplasmic preparation, approx. 1.0 ug Fab/ml) VH: VQLLEQSGGGLVKPGGSLRLSCTASGFTFSGFTFSDHYMSWIRQAPGKGLELVSYIISNGYTNYPDSVKGRFTVSRDNARKSLYLQMNSLRVEDTAIYYCARGLSPSIAGDGFDIWGQGTMVTVSS VL: AELTQSPAFMSATPGDKVNISCKASQDIDDDMNWYQQKPGEAAIFIIQEATTLVPGIPPRFSGSGYGTDFTLTINNIESEDAAYYFCLQHDNFPLTFGQGTKVEIK |  | 0.17 OD405 nm
20 | Fab clone 2a-30 (Fab, V domains shown, Human Fab (gamma1 Fd + kappa), crude periplasmic preparation, approx. 0.96 ug Fab/ml) VH: VQLLEQSGGGLVQPGGSLRLSCTASGFTLTDYSMDWVRQAPGKGPEWVGRSRNKANIYTTEYAASVKGRFVISRDDSENSVYLQMNNVKMDDTAVYYCARGEGIFYGSGSLDLWGQGAVVTVSS VL: AELTQSPSSLSASVGDRVTITCRSSQSISNSLHWFQQEPGKAPKLLIYAASTLQSGVPSRFSGSGSGTDFTLIITGLQPEDFATYYCQQSPRTPLTFGGGTKVEIR | 1.11 OD405 nm | 0.52 OD405 nm
21 | Fab clone 2b-1 (Fab, V domains shown, Human Fab (gamma1 Fd + kappa), crude periplasmic preparation, approx. 0.94 ug Fab/ml) VH: EVQLLESGPRLVKPSQTLSLTCTVSGDSLNNASHYWAWIRQPAGKGLEWIGRIHRGGSTNYNPSLQSRVTISMDESKNQFSLRLNSVTAADTAVYYCARDPPKAWGPGILVTVSS VL: AELTQSPSSLSASVGDRVTIACRASQSISNHLNWYQQKPGKAPKVLIYAASSLQSGVPSRFSGSGSGTDFTLTISSLQPEDFAIYYCQQSYSNADFGPGTKVDIK | 0.35 OD405 nm | 0.12 OD405 nm
22 | Fab clone 2a-33 (Fab, V domains shown, Human Fab (gamma1 Fd + kappa), crude periplasmic preparation, approx. >1 ug Fab/ml) VH: VQLLEQSGGGLVQPGRSLRLSCAASGFTFDDYAMHWVRQTPGKGLEWVSGIGWNSGTIEYADSVKGRFTISRDNAKNSLYLQMNSLRPEDTALYYCAKDLHSFGYCSGRSCYFHPFDYWGQGTLVTVSS VL: not shown | 0.65 OD405 nm | 0.14 OD405 nm

— US20040208887A1 (MOLECULES OF MAN, published 2004)
